Measured values reported in PMC5469197, “ANGUSTIFOLIA, a Plant Homolog of CtBP/BARS Localizes to Stress Granules and Regulates Their Formation” (Frontiers in Plant Science, 2017).

Tests used:
Assay in all cases: co-IP; LUMIER in HEK293TN cells: Prot-A fusion co-transfected with Renilla luciferase fusion (AN always the luciferase fusion with the interactors); luciferase activity before (input) and after pulldown; percentage pulldown = pulldown/input x 100; empty vectors as negative control; positive if more than two times the background
Settings in all cases: partners not purified
[1] = target: T1, RNA BINDING PROTEIN 47C (RBP47C), Prot-A fusion (Arabidopsis thaliana, UniProt Q9SX79 1-432)
T1 construct: RBP47C, Arabidopsis thaliana, AT1G47490; CDS amplified from Col-0 cDNA; source: HEK293TN cells, transfected; not shown: Protein A (Staphylococcus aureus), N-terminal, kept
T1 sequence (looked up): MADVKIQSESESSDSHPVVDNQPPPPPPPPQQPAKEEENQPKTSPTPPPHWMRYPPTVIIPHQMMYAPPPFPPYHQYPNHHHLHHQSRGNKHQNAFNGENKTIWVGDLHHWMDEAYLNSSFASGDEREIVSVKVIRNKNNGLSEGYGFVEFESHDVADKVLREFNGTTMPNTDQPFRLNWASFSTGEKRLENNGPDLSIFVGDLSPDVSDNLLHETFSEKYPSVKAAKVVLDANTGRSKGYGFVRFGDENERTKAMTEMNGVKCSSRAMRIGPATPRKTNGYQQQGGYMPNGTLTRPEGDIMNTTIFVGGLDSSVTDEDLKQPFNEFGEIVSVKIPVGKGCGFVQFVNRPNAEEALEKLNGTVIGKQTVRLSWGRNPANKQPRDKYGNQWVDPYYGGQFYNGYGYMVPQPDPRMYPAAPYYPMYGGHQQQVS

[2] = target: T2, TANDEM ZINC FINGER 3 (TZF3), Prot-A fusion (Arabidopsis thaliana, UniProt Q9M0G2 1-356)
T2 construct: Tandem zinc finger 3, Arabidopsis thaliana, AT4G29190; CDS amplified from Col-0 cDNA; source: HEK293TN cells, transfected; not shown: Protein A (Staphylococcus aureus), N-terminal, kept
T2 sequence (looked up): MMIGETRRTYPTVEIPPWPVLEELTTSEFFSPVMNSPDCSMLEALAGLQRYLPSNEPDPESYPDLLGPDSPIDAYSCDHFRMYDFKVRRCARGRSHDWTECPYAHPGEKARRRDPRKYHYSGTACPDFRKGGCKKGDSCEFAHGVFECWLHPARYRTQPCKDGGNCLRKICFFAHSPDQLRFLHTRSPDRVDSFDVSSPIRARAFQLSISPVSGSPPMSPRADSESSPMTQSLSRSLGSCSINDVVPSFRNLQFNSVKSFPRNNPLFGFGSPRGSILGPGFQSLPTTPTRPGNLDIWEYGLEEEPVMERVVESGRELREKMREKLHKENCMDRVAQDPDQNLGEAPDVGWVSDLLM

[3] = target: T3, PO…-BINDING PROTEIN RBP47C′, Prot-A fusion (Arabidopsis thaliana, UniProt Q9SX80 1-434)
T3 construct: RBP47C′, Arabidopsis thaliana, AT1G47500; CDS amplified from Col-0 cDNA; source: HEK293TN cells, transfected; not shown: Protein A (Staphylococcus aureus), N-terminal, kept
T3 sequence (looked up): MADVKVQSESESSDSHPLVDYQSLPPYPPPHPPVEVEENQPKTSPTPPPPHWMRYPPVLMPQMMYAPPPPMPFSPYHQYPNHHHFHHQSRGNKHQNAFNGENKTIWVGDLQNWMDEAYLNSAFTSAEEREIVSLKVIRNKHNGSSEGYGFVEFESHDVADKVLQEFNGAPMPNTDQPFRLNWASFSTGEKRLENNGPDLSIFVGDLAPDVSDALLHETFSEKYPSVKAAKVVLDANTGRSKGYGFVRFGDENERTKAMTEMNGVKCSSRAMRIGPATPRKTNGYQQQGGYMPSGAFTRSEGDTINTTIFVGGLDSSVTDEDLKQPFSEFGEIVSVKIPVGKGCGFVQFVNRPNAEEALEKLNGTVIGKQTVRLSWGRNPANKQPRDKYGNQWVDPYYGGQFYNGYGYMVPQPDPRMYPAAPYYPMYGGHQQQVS

[4] = target: T4, EIF (ISO) 4E, Prot-A fusion (Arabidopsis thaliana, UniProt O04663 1-198)
T4 construct: EIF(iso)4E, Arabidopsis thaliana, AT5G35620; CDS amplified from Col-0 cDNA; source: HEK293TN cells, transfected; not shown: Protein A (Staphylococcus aureus), N-terminal, kept
T4 sequence (looked up): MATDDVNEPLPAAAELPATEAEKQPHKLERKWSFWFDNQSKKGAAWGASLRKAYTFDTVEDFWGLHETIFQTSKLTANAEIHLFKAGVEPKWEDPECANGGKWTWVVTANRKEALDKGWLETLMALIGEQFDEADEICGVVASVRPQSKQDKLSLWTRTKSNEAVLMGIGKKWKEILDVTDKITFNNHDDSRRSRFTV

fold change from background [1]: 4.97 fold
percentage pulldown [1]: 0.46%
fold change from background [2]: 5.25 fold
percentage pulldown [2]: 0.5%
fold change from background [3]: 3.07 fold
percentage pulldown [3]: 0.29%
fold change from background [4]: 4.09 fold
percentage pulldown [4]: 0.39%
B1: AN, Renilla luciferase fusion (LUMIER) (natural protein, Arabidopsis thaliana, UniProt O23702 1-636, looked up)
chain: MSKIRSSATMPHRDQPSPASPHVVTLNCIEDCALEQDSLAGVAGVEYVPLSRIADGKIESATAVLLHSLAYLPRAAQRRLRPHQLILCLGSADRAVDSTLAADLGLRLVHVDTSRAEEIADTVMALILGLLRRTHLLSRHALSASGWLGSLQPLCRGMRRCRGMVLGIVGRSVSARYLASRSLAFKMSVLYFDVPEGDEERIRPSRFPRAARRMDTLNDLLAASDVISLHCALTNDTVQILNAECLQHIKPGAFLVNTGSCQLLDDCAVKQLLIDGTIAGCALDGAEGPQWMEAWVKEMPNVLILPRSADYSEEVWMEIREKAISILHSFFLDGVIPSNTVSDEEVEESEASEEEEQSPSKHEKLAIVESTSRQQGESTLTSTEIVRREASELKESLSPGQQHVSQNTAVKPEGRRSRSGKKAKKRHSQQKYMQKTDGSSGLNEESTSRRDDIAMSDTEEVLSSSSRCASPEDSRSRKTPLEVMQESSPNQLVMSSKKFIGKSSELLKDGYVVALYAKDLSGLHVSRQRTKNGGWFLDTLSNVSKRDPAAQFIIAYRNKDTVGLRSFAAGGKLLQINRRMEFVFASHSFDVWESWSLEGSLDECRLVNCRNSSAVLDVRVEILAMVGDDGITRWID
notes: ANGUSTIFOLIA (AN), Arabidopsis thaliana, AT1G01510; CDS amplified from Col-0 cDNA; in the dimerisation test the second copy must have been the N-terminal protein A fusion (surmised from the LUMIER format); also called wild-type AN; source: HEK293TN cells, transfected; not shown: Renilla reniformis luciferase, N-terminal, kept
